Non-standard residues stand in square brackets, D forms with d. No end group written: not given here. *: point of attachment. Dnp = O=[N+]([O-])c1ccc(*)c([N+](=O)[O-])c1; 2Abz = Nc1ccccc1C(=O)O
Key:
Abz-LAETGK(Dnp)-CONH2 [1] = target: T1, Abz-LAETGK(Dnp)-CONH2
T1 chain: LAETGK

Abz-LPETGK(Dnp)-CONH2 = target: T2, Abz-LPETGK(Dnp)-CONH2
T2 chain: LPETGK

Abz-LAETGK(Dnp)-CONH2 [2] = target: T3, Abz-LAETGK(Dnp)-CONH2 (N-terminus assumed; SMILES CC(C)C[C@H](NC(=O)c1ccccc1N)C(=O)N[C@@H](C)C(=O)N[C@@H](CCC(=O)O)C(=O)N[C@H](C(=O)NCC(=O)N[C@@H](CCCCNc1ccc([N+](=O)[O-])cc1[N+](=O)[O-])C(N)=O)[C@@H](C)O); assay: cell-based or functional assay
T3 peptide: [2Abz]LAETGK(Dnp)-NH2

Abz-LPESGK(Dnp)-CONH2 [3] = target: T4, Abz-LPESGK(Dnp)-CONH2
T4 chain: LPESGK

Abz-LPECGK(Dnp)-CONH2 = target: T5, Abz-LPECGK(Dnp)-CONH2
T5 chain: LPECGK

Abz-LSETGK(Dnp)-CONH2 = target: T6, Abz-LSETGK(Dnp)-CONH2
T6 chain: LSETGK

Abz-LPEAGK(Dnp)-CONH2 = target: T7, Abz-LPEAGK(Dnp)-CONH2
T7 chain: LPEAGK

[4] = target: T8, human fetuin A, endogenous in human plasma, P02765
T8 chain: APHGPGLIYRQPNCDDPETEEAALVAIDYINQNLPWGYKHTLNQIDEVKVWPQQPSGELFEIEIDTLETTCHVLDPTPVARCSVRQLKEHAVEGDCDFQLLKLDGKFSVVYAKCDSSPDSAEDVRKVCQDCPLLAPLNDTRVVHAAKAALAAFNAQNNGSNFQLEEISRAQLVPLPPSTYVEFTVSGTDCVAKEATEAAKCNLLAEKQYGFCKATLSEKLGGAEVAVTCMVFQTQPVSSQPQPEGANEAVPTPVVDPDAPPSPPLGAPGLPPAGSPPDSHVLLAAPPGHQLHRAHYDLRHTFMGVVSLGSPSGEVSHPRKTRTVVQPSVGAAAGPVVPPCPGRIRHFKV

Gly-Gly-Gly-COOH = target: T9, Gly-Gly-Gly-COOH
T9 chain: GGG

Abz-LPESGK(Dnp)-CONH2 [5] = target: T10, Abz-LPESGK(Dnp)-CONH2 (N-terminus assumed; SMILES CC(C)C[C@H](NC(=O)c1ccccc1N)C(=O)N1CCC[C@H]1C(=O)N[C@@H](CCC(=O)O)C(=O)N[C@@H](CO)C(=O)NCC(=O)N[C@@H](CCCCNc1ccc([N+](=O)[O-])cc1[N+](=O)[O-])C(N)=O); assay: cell-based or functional assay
T10 peptide: [2Abz]LPESGK(Dnp)-NH2

B1: eSrtA(2A-3.5) (enzyme)
chain: QAKPQIPKDKSKVAGYIEIPDADIKEPVYPGPATREQLNRGVSFAEENESLDDQNISIAGHTFIDRPNYQFTNLKAAKKGSMVYFKVGNETRKYKMTSIRNVRPTAVEILDEQKGKDKQLTLFTCDDYNEETGVWETRKIFVATEVK
With B1 the Avg KM (Abz-LAETGK(Dnp)-CONH2 [1]) was 6370 µM, the Avg kcat/KM (Abz-LAETGK(Dnp)-CONH2 [1]) was 180 and the Km, LxExG (Abz-LAETGK(Dnp)-CONH2 [1]) was 7160 µM. The kcat/Km (Hz/M) (Abz-LAETGK(Dnp)-CONH2 [1]) was 175 Hz/M, the Avg KM (Abz-LPETGK(Dnp)-CONH2) was 3750 µM and the Avg kcat/KM (Abz-LPETGK(Dnp)-CONH2) was 406. It also gave a Km, LxExG (Abz-LPETGK(Dnp)-CONH2) of 4110 µM, a Specificity (relative catalytic efficiency, fold), LPETG over LAETG (Abz-LPETGK(Dnp)-CONH2) of 2.25 fold and a kcat/Km (Hz/M) (Abz-LPETGK(Dnp)-CONH2) of 386 Hz/M. The “specificity (relative cat. Efficiency, fold), by the kcat/Km cells LPETG over LAETG” value (Abz-LAETGK(Dnp)-CONH2 [2]) was 2.21 fold.

B2: evolved sortase A (eSrtA) (enzyme)
chain: QAKPQIPKDKSKVAGYIEIPDADIKEPVYPGPATREQLNRGVSFAEENESLDDQNISIAGHTFIDRPNYQFTNLKAAKKGSMVYFKVGNETRKYKMTSIRNVKPTAVEVLDEQKGKDKQLTLITCDDYNEETGVWETRKIFVATEVK
With B2 the Km (Abz-LPESGK(Dnp)-CONH2 [3]) was 318 µM, the Km, LxExG (Abz-LPESGK(Dnp)-CONH2 [3]) was 672 µM and the Rel. Activity (fold below the enzyme's best substrate, LPETG) (Abz-LPESGK(Dnp)-CONH2 [3]) was 4.9 fold. The kcat/Km (Abz-LPESGK(Dnp)-CONH2 [3]) was 4650 M⁻¹ s⁻¹, the kcat/Km (Hz/M) (Abz-LPESGK(Dnp)-CONH2 [3]) was 2650 Hz/M and the Km (Abz-LPECGK(Dnp)-CONH2) was 72.5 µM. For the same binder, the kcat/Km (Abz-LPECGK(Dnp)-CONH2) was 48800 M⁻¹ s⁻¹, the Km (Abz-LSETGK(Dnp)-CONH2) was 533 µM and the kcat/Km (Abz-LSETGK(Dnp)-CONH2) was 192 M⁻¹ s⁻¹. It also gave a Km (Abz-LPEAGK(Dnp)-CONH2) of 83.4 µM, a kcat/Km (Abz-LPEAGK(Dnp)-CONH2) of 8900 M⁻¹ s⁻¹ and a Km (Abz-LAETGK(Dnp)-CONH2 [1]) of 6070 µM. For the same binder, the Km, LxExG (Abz-LAETGK(Dnp)-CONH2 [1]) was 6160 µM, the Rel. Activity (fold below the enzyme's best substrate, LPETG) (Abz-LAETGK(Dnp)-CONH2 [1]) was 103 fold and the kcat/Km (Abz-LAETGK(Dnp)-CONH2 [1]) was 223 M⁻¹ s⁻¹. The kcat/Km (Hz/M) (Abz-LAETGK(Dnp)-CONH2 [1]) was 221 Hz/M, the “conjugation efficiency in human plasma, with supplemental calcium (densitometry)” value [4] was 0.6% by eSrtA in the presence supplemental calcium and the “fetuin A conjugation efficiency with 10 mM added CaCl2, against eSrtA(4S-9)” value [4] was “only modest fetuin A conjugation efficiencies (90-fold lower than that of eSrtA(4S-9)) in the presence of 10 mM added CaCl2”. The “processing of fetuin A in human plasma without supplemental calcium” value [4] was “eSrtA showed no processing of fetuin A without supplemental calcium”, the Km, GGG (uM); with LPETG peptide (Gly-Gly-Gly-COOH) was 2990 µM and the Km,GGG (µM); listed substrate LAETG (Gly-Gly-Gly-COOH) was 807 µM. The Km,GGG (µM); listed substrate LPEAG (Gly-Gly-Gly-COOH) was 48400 µM, the Km,GGG (µM); listed substrate LPECG (Gly-Gly-Gly-COOH) was 57000 µM and the Km,GGG (µM); listed substrate LPESG (Gly-Gly-Gly-COOH) was 22000 µM. For the same binder, the Km,GGG (µM); listed substrate LPETG (Gly-Gly-Gly-COOH) was 1620 µM, the Km,GGG (µM); listed substrate LSETG (Gly-Gly-Gly-COOH) was 337 µM and the Km (Abz-LPETGK(Dnp)-CONH2) was 230 µM. The Km, LxExG (Abz-LPETGK(Dnp)-CONH2) was 208 µM, the kcat/Km (Abz-LPETGK(Dnp)-CONH2) was 23000 M⁻¹ s⁻¹ and the kcat/Km (Hz/M) (Abz-LPETGK(Dnp)-CONH2) was 27100 Hz/M. For the same binder, the specificity (relative cat. Efficiency, fold), LPETG over LAETG (Abz-LPETGK(Dnp)-CONH2) was 123 fold and the “specificity (relative cat. Efficiency, fold), by the kcat/Km cells LPETG over LPESG” value (Abz-LPESGK(Dnp)-CONH2 [5]) was 10.2 fold.

— patent US20160208233A1 (Harvard, published 2016)
